Earlier results, collected in article PMC3212873.
Where “and” joins values, the source holds several entries; their conditions need not be identical. Equal values may be shown once.

What was measured:
[1] = target: Cys32 (UniProt position 33, FWAEWCPYCKM); details: reduced variant
[2] = target: T1, Cys32 (UniProt position 33, FWAEWCGPCKM); assay: fluorescence; details: reduced Trx-(SH)2, no protein ligand
[3] = target: T1, Cys32; assay: Raman; details: reduced Trx-(SH)2, no protein ligand
[4] = target: T2, Cys35 (UniProt position 36, EWCGPCKMIAP); assay: Raman; details: reduced Trx-(SH)2, no protein ligand
[5] = target: T1, Cys32; assay: UV-vis; details: reduced Trx-(SH)2, no protein ligand
[6] = target: T2, Cys35; assay: UV-vis; details: reduced Trx-(SH)2, no protein ligand
[7] = target: T1, Cys32; assay: chemical modification; details: reduced Trx-(SH)2, no protein ligand
[8] = target: T2, Cys35; assay: chemical modification; details: reduced Trx-(SH)2, no protein ligand
[9] = target: T1, Cys32; assay: NMR; details: reduced Trx-(SH)2, no protein ligand

| Substance | pKa [1] | pKa [2] | pKa [3] | pKa [4] | pKa [5] | pKa [6] | pKa [7] | pKa [8] | pKa [9] |
| --- | --- | --- | --- | --- | --- | --- | --- | --- | --- |
| Thioredoxin 1, glutaredoxin-like active-site variant (Grx-like EcTrx, CPYC) (Escherichia coli; G33P;P34Y) | 5.9 |  |  |  |  |  |  |  |  |
| Thioredoxin 1 (EcTrx) (Escherichia coli) |  | 6.28 | 7.1 | 7.9 | 9-10 | 9-10 | 6.7 | 9.0 | 7.4 and 7.0-7.1 and 7.5 or 9.2 |
